Data published in article PMC10591298.

These substances were tested against Lys119 (UniProt position 119, IPVLRKDFVVQ) (assay: kinetics). Settings: 25 °C; 100 mM NaCl in MTEN buffer (said to have minimal change in ionic strength with pH); Steady-state turnover with CdRP (60 µM) above KM; enzyme 0.25-60 µM depending on variant.

Row | Substance | pKa
1 | MtIGPS Glu219Gln (Mycobacterium tuberculosis; E219Q) | 9.9 ± 0.1
2 | MtIGPS Glu219Asp (Mycobacterium tuberculosis; E219D) | 7.6 ± 0.2
3 | MtIGPS Glu57Asp (Mycobacterium tuberculosis; E57D) | 7.7 ± 0.1
4 | Indole-3-glycerol phosphate synthase (MtIGPS), wild type (Mycobacterium tuberculosis) | 9.0 ± 0.1
5 | MtIGPS Glu219Asn (Mycobacterium tuberculosis; E219N) | 10.0 ± 0.2
